Test [1] has as its target T1, Recombinant human PSCA-mouse Fc fusion protein (human; mouse, UniProt O43653 12-83, limits assumed).
T1 construct: Those marks are not visible here; also called hPSCA-mFc; human PSCA-murine Fc fusion protein; not shown: mouse Fc
T1 sequence: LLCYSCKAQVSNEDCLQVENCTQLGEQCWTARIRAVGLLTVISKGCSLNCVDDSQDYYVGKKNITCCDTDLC
Description: ELISA saturation binding on immobilized hPSCA-mFc, one site-specific binding fit (EC50=Kd), n=3. The procedure: (§1) Specificity and affinity of antigen binding was further evaluated by performing saturation binding on immobilized antigen in ELISA. Recombinant human PSCA-mouse Fc fusion protein (hPSCA-mFc, produced in house) was immobilized (1 μg/mL, 100 µL/well in PBS overnight at 4° C.). Serial dilutions of anti-PSCA scFvFc's ([…]) were incubated for 1 h at RT and after washing bound antibody fragments were detected using goat anti-human IgG-Fc-AP antibody (1:10,000) and pNPP substrate (alkaline phosphatase yellow, liquid substrate, Sigma-Aldrich P7998). The enzymatic reaction was stopped using 50 μL 2M NaOH and absorbance was red at 405 nm in an SpectraMax M2 microplane reader. Specific binding was fitted using the “one site-specific binding” equation to determine the Kd (ligand concentration that binds half the antigen sites at equilibrium) and Bₘₐₓ (maximum number of binding sites).
Background: An ELISA detects its analyte on a solid surface through an enzyme-linked reagent.

Test [2] addresses T2, Human prostate stem cell antigen (PSCA) expressed on RM9-hPSCA murine prostate cancer cells (human, UniProt O43653 12-83).
T2 construct: RM9 cells transduced with human PSCA; also called RM9-hPSCA cells
T2 sequence: T1 sequence
Description: saturation binding on PSCA-expressing cells. From the text: (§2) The resulting saturation binding curves were fitted (one-site specific binding, GraphPad Prism) to determine Kd and Bₘₐₓ from four independent experiments. […] (FIG. 6)
Two novel anti-PSCA scFv-Fc variants (A2SM, A2aG) were designed, produced, and purified (FIG. 1). SDS-PAGE and SEC analysis confirmed purity and dimeric self-assembly. […] A2SM was successfully radiolabeled with ⁸⁹Zr (efficiency: >90%, purity >99%, n=2) resulting in a specific activity of ~0.17 MBq/μg (FIG. 2). […] Therefore, the novel A2SM could deliver a higher cytotoxic dose to the tumor while the liver remains the dose-limiting organ.

Test [3] has as its target T3, BSA (UniProt P02769 25-607).
T3 construct: Control coating in the ELISA; also called bovine serum albumin (control coating)
The test can be described thus: ELISA, BSA-coated control wells. The protocol:
as §1
The purified proteins were tested for specific binding to recombinant antigen by ELISA on immobilized human PSCA-mouse Fc protein. Dose-dependent binding was detected for wells coated with hPSCA-mFc and no non-specific binding was detected in BSA coated control wells.

The target in test [4] is T2, Human prostate stem cell antigen (PSCA) …. The test can be described thus: flow cytometry saturation binding on RM9-hPSCA cells, one-site specific binding fit, four independent experiments.
Description: as §2

The target in test [5] is T1, Recombinant human PSCA-mouse Fc fusion …. The test can be described thus: ELISA saturation binding on hPSCA-mFc (value given for the 'previous' variant).

Substitutions are numbered along the chain they refer to. Names may count otherwise.

T3 sequence (P02769 25-607 limits assumed): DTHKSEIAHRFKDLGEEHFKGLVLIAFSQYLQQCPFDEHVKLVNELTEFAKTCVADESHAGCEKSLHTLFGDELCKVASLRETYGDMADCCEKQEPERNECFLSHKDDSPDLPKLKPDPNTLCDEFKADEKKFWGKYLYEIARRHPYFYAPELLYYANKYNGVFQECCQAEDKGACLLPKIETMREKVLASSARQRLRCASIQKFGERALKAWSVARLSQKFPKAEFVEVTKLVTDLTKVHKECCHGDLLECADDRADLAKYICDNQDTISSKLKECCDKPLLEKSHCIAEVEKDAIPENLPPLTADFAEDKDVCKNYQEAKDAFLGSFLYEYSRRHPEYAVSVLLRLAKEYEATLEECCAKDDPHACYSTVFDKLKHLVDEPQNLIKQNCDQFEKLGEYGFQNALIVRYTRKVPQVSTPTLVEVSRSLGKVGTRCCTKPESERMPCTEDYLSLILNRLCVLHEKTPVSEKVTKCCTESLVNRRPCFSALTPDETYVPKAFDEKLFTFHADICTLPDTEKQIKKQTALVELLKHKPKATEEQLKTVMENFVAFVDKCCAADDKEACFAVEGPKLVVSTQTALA

B1: A2scFv-Fc2 SM (anti-PSCA A2 scFv-Fc2 single mutant, H310A, with K322A) (Fc fusion)
chain: EVQLVESGGGLVQPGGSLRLSCAASGFNIKDYYIHWVRQAPGKGLEWVAWIDPEYGDSEFVPKFQGRATMSADTSKNTAYLQMNSLRAEDTAVYYCKTGGFWGRGTLVTVSSGGGGSGGGGSGGSAQDIQLTQSPSSLSASVGDRVTITCSASSSVRFIHWYQQKPGKAPKRLIYDTSKLASGVPSRFSGSGSGTDFTLTISSLQPEDFATYYCQQWGSSPFTFGQGTKVEIKVECPPCPAPPVAGPSVFLFPPKPKDTLMISRTPEVTCVVVDVSHEDPEVQFNWYVDGMEVHNAKTKPREEQFNSTFRVVSVLTVVAQDWLNGKEYKCAVSNKGLPAPIEKTISKTKGQPREPQVYTLPPSREEMTKNQVSLTCLVKGFYPSDIAVEWESNGQPENNYKTTPPMLDSDGSFFLYSKLTVDKSRWQQGNVFSCSVMHEALHNHYTQKSLSLSPGK
notes: Homodimeric scFv-Fc of about 110 kDa, glycosylated, made in FreeStyle 293-F cells; I could not check whether that entry includes a leader peptide from the pSecTag2A vector; also called A2SM; A2scFv-Fc2-SM w/K322A
Usually Kd stands for the concentration at which binding is half-saturated. For the molecule B1, the values for the Kd in test [1], in test [2] and in test [4] were 0.59 nM, 3.3 nM and 3.74 nM, respectively. The binding result in test [3] was “no binding”.

B2: A2scFv-Fc2 DM (anti-PSCA A2 scFv-Fc2 double mutant, H310A/H435Q) (Fc fusion)
chain: B1 chain with A331K, H444Q
With B2, the Kd in test [5] was 0.8 nM.

B3: A2scFv-Fc2 (anti-PSCA A2 scFv-Fc2 without FcRn-site mutations) (Fc fusion)
chain: B1 chain with A319H, A331K
notes: also called A2Fc2
With B3, the dissociation constant Kd in test [5] came out at 0.5 nM.

B4: A2scFv-Fc2 DMaG (anti-PSCA A2 scFv-Fc2 double mutant aglycosylated, H310A/H435Q, N297Q, with K322A) (Fc fusion)
chain: B1 chain with N306Q, H444Q
notes: I could not check whether that entry includes a leader peptide; also called A2DMaG; A2scFv-Fc2-DMaG w/K322A
Consider B4, for which the dissociation constant Kd in test [1] is 0.8 nM; in test [2], 3.1 nM; in test [4] it was 3.28 nM. The binding result in test [3] was “no binding”.
